The results in this text go back to the nanobody polyreactivity screen of Harvey et al. (2022).

A short description of the series: yeast display, Sf9 membrane polyspecificity reagent, FACS + sequencing; frameworks hold sequencing errors. An outline of the steps:
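Synthetic nanobody libraries on Saccharomyces cerevisiae BJ5465 were galactose-induced for 36–48 hours, stained 1 hour at 4 °C with 10% biotinylated, detergent-solubilized Sf9 membrane reagent and enriched on streptavidin microbeads. FACS then separated cells into low and high (top ~1%) gates by anti-HA (expression) and streptavidin (reagent binding) fluorescence. Genes were colony-PCR amplified, MiSeq 2 × 250 sequenced and CDR-length filtered. A clone's polyreactivity label is that of its gate of origin.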
Take “QVQLVESGGGLVQAGGSLRLSCAASGITFERYAIGWYRQAPGKERELVAAITSSGGSTYYADSVKGRFTISRDNAKNTVYLQMNSLKPEDTAVYYCAARNAYTPRHDYWGQGTQVTVSS”: the “polyreactivity (PSR sort gate)” value is reported as “high polyreactivity”.

Turning to “QVQLVESGGGLVQAGGSLRLSCAASGRTFYKNAMGWYRQAPGKERELVARISRGGSTNYADSVKGRFTISRDNAKNTVYLQMYSVKPEESAVYYCATEYGTHGKTYDYWGQGSQVTVSS”, the “polyreactivity (PSR sort gate)” value is given as “high polyreactivity”.

Take “QVQLVESGGGLVQAGGSLRLICAASGRTLGGNDMGWYRQAPGKERELVAAITNSASTYADSVKGRFTISRDNAKNTVYLQMNSLKPEDTAVYYCNAPDPSDQHGDYWGQGTQVTVSS”: the “polyreactivity (PSR sort gate)” value is “low polyreactivity”.

Turning to “QVQLVESGGGLVQAGGSLRLSCAASGSIFDPYAMGWYRQAPGKERELVAAITSDGSTNYADSVKGRFTISRDNAKNTVYLQMNSLKPEDTAVYYCAKHQFGRYVVLYPRGHWFDYWGQGTQVTVSS”, the “polyreactivity (PSR sort gate)” value is “low polyreactivity”.

Take “QVQVVESGGGLVQAGGSLRLSCAASGSTLSKNAMGWYRQAPGKERELVAAITLRGGSTSFADSVKGRFTISRDNAMNTVYLHMNSLKPEDTAVYYCNAVSKFDYGYWVQGTQVTVSS”: the “polyreactivity (PSR sort gate)” value is listed as “high polyreactivity”.

Consider “QVQLVESGGGLVQAGGSLRLSCAASGITFYINAMGWSRQAPRKERALLAGISSGGSTNYADSVKGRFTISRDNAKNTVYLQMNSLKPEDTAVYYCWVSRTYHLDYWGQGTQVTVSS”, for which the “polyreactivity (PSR sort gate)” value is given as “low polyreactivity”.

Take “QVQLVESGGGLVQAGGSLRLSCAASGRIFSRYAMGLYRQAPGKERELVAAITWRGGSTYYADSVKGRFTISRDNAKNTVYLEMNSLKPEDSAVYYCAKYGSGGRQLRSDSWVQGTQVTVSS”: the “polyreactivity (PSR sort gate)” value was “high polyreactivity”.

Turning to “QVQLVESGGGLVQAGGSLRLSCAASGSTFYLNALGGYRQAPGKEREFVAAIDTGTGTYYADSVKGRFTISRDNAKNTVYLQMNRLKPEDTAVYYCAKDDLLVVRNVWFDYWGQGTQVTVSS”, the “polyreactivity (PSR sort gate)” value was “low polyreactivity”.

On to “QVQLVESGGGLVQAGGSLRLSCAASGRIFFYYVMGWYRQAPGKERELVAAITRSGGSTYYADSVKGRFTISRDNAKNTVYLQMNSLKPEDTAVYYCSVGDGFEYDWGQGTQVTVSS”, for which the “polyreactivity (PSR sort gate)” value is given as “low polyreactivity”.

“QVQLVESGGGLVQAGGSLRLSCAASGFIFDGYAMGWYRQAPGKERELVAAISSVGSTYYADSVKGRFTISRDNAKNTVYLQMNSLKPEDTAVYYCARGLEERYDYWGQGTQVTVSS”: the “polyreactivity (PSR sort gate)” value is “low polyreactivity”.

Take “QVQLVESGGGLVQAGGSLRLSCAASGSTFTTYAMGWYRQAPGKESELVAAITWSVGSTYYADSVMGRFTISRDNAKNTVYLQMNSLKPEDTAVYYCAADPTGGVGFDGYYWGQGTQVTVSS”: the “polyreactivity (PSR sort gate)” value is recorded as “low polyreactivity”.

Turning to “QVQLVESGGGLVQAGGSLRLSCAASGRIFDIYTMGWYRQAPGNERELVASITKRGGSTYYADSVKGRFTISRDNAKNTVYLQMNSLKPEDTAVYYCNVAGKQKPYYVTTRLDYWGQGTQVTVSS”, the “polyreactivity (PSR sort gate)” value is reported as “high polyreactivity”.

Take “QVQLVESGGGLVQAGGSLRLICAASGNTFRYYAMGWYRQAPGKERELDAAINSRGGTTSYADSVKGRFTISRDNAKNTVYLQMNSLKPEDTAVYYCAARSYYRGTFYPYYYWGQGTQVTVSS”: the “polyreactivity (PSR sort gate)” value is “high polyreactivity”.

For “QVQLVESGGGLVQAGGSLRLSCAASGRIFLGNVMGWYRQAPGKERELVAAISSGGSTNYADSVKGRFTISRDNAKNTVYLQMNSLKPEDTAVYYCAAYFVRDWKLYYYWGQGTQVTVSS”, the “polyreactivity (PSR sort gate)” value is given as “low polyreactivity”.

As for “QVQLVESGGGLVQAGGSLRLSCAASGRTFWYYTMGWYIQAPGKERELVASITYRGGSTYYADSVKGRFTISRDNAKNTVYLQMNSLKPEDTAVYYCNARYKRYSYDYWGQGTQVTVSS”, the “polyreactivity (PSR sort gate)” value is given as “high polyreactivity”.

Consider “QVQLVESVGGIVQAGGSLRLSCAASGGICYEYAMGWYRQAPGKERELVATISFNVASTYADSVKGRFTISRDNAKNTVYLQMNSLKPEDTAVDYCIADTYWDRDSRYDYWGLGTQVTVSS”, for which the “polyreactivity (PSR sort gate)” value is on record as “low polyreactivity”.

On to “QVQLVESGGGLVQAGGSLRLSCAASGRITFSHNTMGWYRQAPGKERELVAAISSGGRTNYADSVKGRFTISRDNAKNTVYLQMNSLKPEDTGVYYCARESHYDFIYDGMDYWGQGTQVTVSS”, for which the “polyreactivity (PSR sort gate)” value is “low polyreactivity”.

As to “QVQLVESGGGLVQAGGSLRLSCAASGFIFATYTMGWYRQAPGKERKLVAAITWRGGSTYYADSVKGRFTISRDNAKNSVYLQMNSLKPEDTAVYYCAAQDVYSYRYVEDDYWGQGTQVTVSS”, the “polyreactivity (PSR sort gate)” value was “low polyreactivity”.

For “QVQLVESAGGLVQAGGSLRLSCAASGLTFVPNAMGWYRQAPGKEREFVAAISNNGGRTYYADSVKGRFTISRDNAKNTVYLEMNSLKPEDTAVYYCAKFLSPGERHSYDYWGQGTQVTVSS”, the “polyreactivity (PSR sort gate)” value is recorded as “high polyreactivity”.

Turning to “QDQLVESGGGLVQAGGSLRLSCAASGFTFRRYAMGWYRQAPGKERELVAAISYTGGITYYADSVKGRFTISRDNAKNTVYLQMNSLKPEDTAVYYCAAESVWTWDYTTAGMDYWGQGTQVTVSS”, the “polyreactivity (PSR sort gate)” value is listed as “high polyreactivity”.

“QVQLVESGGGLVQAGGSLRLSCAASGLTFLFYAMGWYRQAPGKERELVASIRWSDGRTYYADSVKGRFTISRDNAKNTVYLQMNSLKPEDTAVYYCAVVPAYVYLNREYYWGQGTQVTVSS”: the “polyreactivity (PSR sort gate)” value is reported as “high polyreactivity”.

Consider “QVQLVESGGGLVQAGGSLRLSCAASGSTFHRKAMGWYRQAPGKERELVASISIGGSTNYADSVKGRFTISRDNAKNTVYLQMNSLKPEDTAVYYCATEPNPRRPRVDYDYWGQGTQVTVSS”, for which the “polyreactivity (PSR sort gate)” value is “low polyreactivity”.

With “QVQLVESGGGLVQAGGSLRISCAASGSTFYYNAMGWYRQAPGKERELVAAISYSGGRTYYADSLTGRFTISRDNAKNTVYLQMNSLKPEDTAVYYCATGQPILALRYAYGYWGQGTQVTVSS”, the “polyreactivity (PSR sort gate)” value is reported as “low polyreactivity”.

On to “QVQHVESGGGLVQAGGSLPLSCAASGFIFTSNSMGWYRQAPGKESEFVAAITSGGITYYADSVKGRFTISRDNAKNTVYLQMNSLKPEDTAVYYCAAVLSYQTPKYYRWRYGYWGQGTQVTVSS”, for which the “polyreactivity (PSR sort gate)” value is reported as “low polyreactivity”.

“QVQLVESGGGLVQAGGSLRLSCAASGNIFRYYAMGWYRQSPGKERELVAAITRSGGSTYADSVKGRFTISRDNAKNTVYLQMNSLKPEDTAVYYCAAVGYRYFTIYDYWGQGTQVTVSS”: the “polyreactivity (PSR sort gate)” value is on record as “low polyreactivity”.

Take “QVQLVESGGGLVQAGGILRLSCAASGFTLADNTMVWYRQSPGKERELVADITSGASTYYADSVKGRFTISRDNAKNTVYLQMNSLKPEDTAVYYCAALYYWRSGYDYWGQGTQVTVSS”: the “polyreactivity (PSR sort gate)” value was “low polyreactivity”.

Consider “QVQLVESGGGLVQAGGSLRLSCAASGRIFAYYAMGWYRQAPGKEREMVAAISRSGGSTYYADSVKGRFPISRDNAKNTVYLQMNSLKPEDTAVYYCAASLKVPYATMNYWGQGTQVTVSS”, for which the “polyreactivity (PSR sort gate)” value is on record as “high polyreactivity”.

Regarding “QVQLVESGGGLVQAGGSLRLSCAASGFTFTYYTMGWYRQAPGKERELVAAISWSGSSTYYADSVKGRFTISRDNAKNTVYLQMNSLKPEDTAVYYCAAKYRGKYYYWGQGTQVTVSS”, the “polyreactivity (PSR sort gate)” value was “high polyreactivity”.

For “QVQLVESGGGLVQAGGSLRLSCAASGSIFGINVMGWYRQAPGKERELVAAITSGTSTYYADSVKGLFTISRDNANNTVYLQMNSLKPEDTAVYYCAALWSSRFVVHPQWYDYWGQGTQVTVSS”, the “polyreactivity (PSR sort gate)” value is “low polyreactivity”.

“QVQLVESGGGLVQAGGSLRLSCAASGGTFGRYAMGWYRQAPGKERELFAAITWGGTRTYYADSVKGRFTISRDNAKNTVYLQMNSLKPEDTAGYYCAAYSNYPVFDYNYWGQGTQVTVSS”: the “polyreactivity (PSR sort gate)” value is “high polyreactivity”.

Regarding “QVQLVESGGGLVQAGGSHRLSCAASGRIFDKYAMGWYRQAPGKERELVATITSSGGSTYYADSVKGRFTISRDNAKNTVYLQMNSLKPEDTAVYYCAALDRTGWGYDYWGQGTQVTVSS”, the “polyreactivity (PSR sort gate)” value is on record as “low polyreactivity”.

Turning to “QVQLVESGGGLVQAGGSLLLSCAASGSTYKYAMGWYRQAPGKERELVAVISSGGSTDDADSVKGRFTISRDNAKNTVYLQMNSLKPEDTAVYYCAADSGFVSIGSYYWGLGTQVTVSS”, the “polyreactivity (PSR sort gate)” value was “low polyreactivity”.

As for “QDQLVESGGGLVQAGGSLRLSCAASGRTLVHYGMGRYRQAPRKERELVAVITSGGSTYYADSVKARFTISRDNAKNTVYLQMNSLKPEDTAVYYCAAYKERFYEEYGYWGQGTQLTVSS”, the “polyreactivity (PSR sort gate)” value is “low polyreactivity”.

For “QVQLVESGGGLVQAGGSLRLSCAASGSTFYDNTMGSYRQAPGKERELVAAITGTGGNTYYADSVKGRFTISRDNAKNTVYLQMNSLKPEDTAVYYCNRVPVYYYRYGYWGQGTQVTVSS”, the “polyreactivity (PSR sort gate)” value is reported as “low polyreactivity”.

As to “QVQLVESGGGLVQAGGSLRLSRAASGFTLAYYAMGWYRQAPGKERELVAAITADTGTTYYADSVKGRFTISRDNAKNTVYLQMNSLKPEDTAVYYCATRDVFYDDDYWGQGTQVTVSS”, the “polyreactivity (PSR sort gate)” value is reported as “high polyreactivity”.

“QVQLVESGGALVQAGGSLRLSCAASGSTFPTNAMGWYRQAPGKERELVAAITSSTGSTYYADSVKGRFTISRDNAKNTVYLQMNSLKPEDTAVYSCAKSKQWQRYLRGNYWGQGTQVTVSS”: the “polyreactivity (PSR sort gate)” value is “low polyreactivity”.

On to “QVQLVESGGGLVQAGGSLRLSCAASGSILGYYAMGWYRQAPGKERELVAITSGDSTYYADSVKGRFTISRDNAKNTVYLQMNSLKPEDTAVYYCNARYSWKYDYWGQGTQVTVSS”, for which the “polyreactivity (PSR sort gate)” value is listed as “high polyreactivity”.

“QVQLVESGGGLVQAGGSLRLTCAASGRTFGTYVMGWYIQAPGKERELVATISRRGGTTYYADSVKGRFTISRDNAKNTVYLQMNSLKPVDNAVYYCAATYFGTRYDYWGQGTQVTVSS”: the “polyreactivity (PSR sort gate)” value was “high polyreactivity”.

For “QVQLVESGGGIVQAGGRLRLSCAASGSIFLQYTMGWYRQAPGKERELVAAITESDGSTYYADSVKGRFTISRDNAKNTVYLQMNSLKPEDTAVYYCAADVVYFKYWDKYDYWGQGTQVTLSS”, the “polyreactivity (PSR sort gate)” value is “low polyreactivity”.

As to “QVQLVESGGGLVQAGGSLRLSCAASGSTFYDYAMGWYRQAPGKERELVAAISQSGGSTYYADSVKGRFTISRDNAKNTVYLQMNSLKPEDTAVYYCAADSGYSLYDYWGQCTQVTVSS”, the “polyreactivity (PSR sort gate)” value is recorded as “low polyreactivity”.

For “QVQLVESGGGLVQAGGSLRLSCAASGIIFYHNAMGWYRKAPGKERELVATIRSSGDGTYYADSVKGRFTISRDNAKNTVYLQMNSLKPEDTAVYYCAAYWAHSYSYSVSRRYYYWGQGTQVTVSS”, the “polyreactivity (PSR sort gate)” value is on record as “low polyreactivity”.
